Results on one molecule are retold here after publication PMC7431413, “Selective inhibition of STAT3 signaling using monobodies targeting the coiled-coil and N-terminal domains” (Nature Communications, 2020).

The assay has as its target T1, recombinant core fragment (CF) of STAT3 (human, UniProt P40763 127-722).
T1 construct: STAT3, human, core fragment (CC, DBD and SH2 domains), a.a; For the crystal the methods say 'TEV cleaved-MS3-6 and STAT3-CF'; it is not clear whether the tags of STAT3-CF were cut too; also called STAT3-CF; source: E. coli BL21 (DE3), pHBT vector, purified (Ni-NTA, SEC)
In words: fluorescence polarisation; fluorescent gp130 pY-peptide and recombinant STAT3-CF (Supplementary Fig. 3a); TBS (50 mM Tris pH 7.5, 150 mM NaCl). The settings on record: both partners purified. A general note: Fluorescence polarisation rises when a labelled molecule tumbles more slowly, as on binding a larger partner.

Where no end group is shown, it is not given here. [ ]: non-standard residue; d: D form. pY = N[C@@H](Cc1ccc(OP(=O)(O)O)cc1)C(=O)O

T1 sequence (P40763 127-722): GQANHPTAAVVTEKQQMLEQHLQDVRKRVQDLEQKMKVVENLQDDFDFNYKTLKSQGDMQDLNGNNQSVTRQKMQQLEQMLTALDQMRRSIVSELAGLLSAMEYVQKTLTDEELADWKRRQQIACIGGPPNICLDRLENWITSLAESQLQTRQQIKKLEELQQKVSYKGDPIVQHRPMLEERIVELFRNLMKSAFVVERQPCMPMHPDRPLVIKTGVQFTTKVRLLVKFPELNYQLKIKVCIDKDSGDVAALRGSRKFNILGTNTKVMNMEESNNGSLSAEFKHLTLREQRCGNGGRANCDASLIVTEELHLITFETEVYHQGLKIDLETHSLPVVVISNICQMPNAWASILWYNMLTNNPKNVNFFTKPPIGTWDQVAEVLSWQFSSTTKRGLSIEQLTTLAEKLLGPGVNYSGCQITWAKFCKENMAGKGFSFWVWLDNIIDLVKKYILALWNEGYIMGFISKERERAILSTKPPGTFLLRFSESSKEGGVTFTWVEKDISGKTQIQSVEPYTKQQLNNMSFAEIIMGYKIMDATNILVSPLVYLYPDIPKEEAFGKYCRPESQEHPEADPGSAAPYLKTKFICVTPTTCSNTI

B1: fluorescent pY-peptide encompassing the pY905 docking site of gp130 (peptide)
peptide: GMPKS[pY]LPQTVR-NH2
modifications: not fully specified (N-terminus)
notes: gp130, cytosolic tail around the Y905 docking site; also called gp130 pY-peptide; phospho-gp130 peptide; source: synthetic peptide
As for B1, the Kd was found to be 930 nM.

For orientation: Kd means the equilibrium constant for the complex coming apart.
